Source: the RNAGym collection of RNA variant scans (doi:10.1073/pnas.2313332121)
Variants at the floor of the assay were thinned out.

B1: TPR 5TU (parent)
chain: GGAUCUUCUCGAUCUAACAAAAAAGACAAAUCUGCCACAAAGCUUGAGAGCAUCUUCGGAUGCAGAGGCGGCAGCCUUCGGUGGCGCGAUAGCGCCAACGUUCUCAACUAUGACACGCAAAACGCGUGCUCCGUUGAAUGGAGUUUAUCAUG

Variants of: B1
Assay: polymerase ribozyme fitness, log enrichment relative to wild type (log ratio); higher = more active; in vitro selection for triplet polymerase activity
Outline: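 Mutant libraries were PCR-built and transcribed for each subunit of a heterodimeric triplet polymerase ribozyme and selected for one round in triplicate at −7 °C, frozen, before gel excision of extended constructs and streptavidin-bead capture. Input and output libraries were Illumina-sequenced, keeping genotypes with ≥10 input reads and ≥1 read per output. Fitness is a logarithmic ratio of genotype to wild-type enrichment, in base 2, using inverse-variance-weighted replicate averages.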

| Variant | polymerase ribozyme fitness (log ratio) |
| --- | --- |
| U31G C57U G83C C87A | ≤ -4.2 |
| C32G C85U | -3.86 |
| C32G C85G | ≤ -4.2 |
| C32U C69G C72U G88C U135G | ≤ -4.2 |
| U31C C63G G83A C96U | 1.61 |
| U33C A52G G70A G92A A150G | -3.87 |
| U31G G59A G92U | -0.919 |
| C32A A91U C99U A120C | ≤ -4.2 |
| C32G A49C C118U | ≤ -4.2 |
| U33C A49G U77G U130A G133U U135A | ≤ -4.2 |
| C32U G65C U77A C87G U90C C114A U151A | ≤ -4.2 |
| C32U C75U G88A A115C | ≤ -4.2 |
| U31C C96G A137U | ≤ -4.2 |
| C32U G46A A60U G83C C96A G141A | ≤ -4.2 |
| U31G G42U G58U G59A G86U U104G C131G G136C | ≤ -4.2 |
| C32A A41C C51U G58A C69U C93U C108U | ≤ -4.2 |
| U33C A41U C57U G70C G83A A119C | ≤ -4.2 |
| U31G A40C G42A G50A C54U C72U G94U | ≤ -4.2 |
| U31G C54U U101C | -0.138 |
| C32U G50C C54G A73G G88A C96G | ≤ -4.2 |
| U31G G58C G140C | -4 |

| Variant | polymerase ribozyme fitness (log ratio) |
| --- | --- |
| C32G A40U C57U U135G | ≤ -4.2 |
| C32U G42U C79G C129A A138G U146C | ≤ -4.2 |
| C32U C43U G92A U146G | ≤ -4.2 |
| C32G U146A | -3.88 |
| C32A U45A A60G C75U G81A U90G C116A | ≤ -4.2 |
| C32G U44A G65A C85G | ≤ -4.2 |
| C32G C43U C54U A73G U77G | ≤ -4.2 |
| U31G A40G G83C A142G | ≤ -4.2 |
| C32G C87G U104G A110G A150U | ≤ -4.2 |
| C32G A37G G83U C87G A89G G133C | ≤ -4.2 |
| U31G A37U A41C C75U C76G C96U C105U G117U G133U U134C | ≤ -4.2 |
| U33A U56A U90A A122C U151G | ≤ -4.2 |
| U31C U102A | 0.128 |
| U31C C76U C93G U102C U145G | ≤ -4.2 |
| U31C A41U A115G U144G | -1.6 |
| C32U G42A A60C A66G A73G C79A G84A C93U C96G A97U C103G | ≤ -4.2 |
| U33A G92A | ≤ -4.2 |
| U33C A49C C57U U145A U151A | ≤ -4.2 |
| U31A U56A U127C | -1.37 |
| C32U G50A A52G G58A C87G C118G | ≤ -4.2 |
| C32U A40G C105A | -3.89 |

| Variant | polymerase ribozyme fitness (log ratio) |
| --- | --- |
| U31A U135G G143C | -3.93 |
| U31G C87U U127A | -3.89 |
| U31C G83C G140C | -4.18 |
| U31G U56A G80C C87G C99G | ≤ -4.2 |
| U31C C69U G86U C96U | -3.55 |
| C32A A47U C87U | ≤ -4.2 |
| U33A C85U U146G A147U A150G | ≤ -4.2 |
| U31C C35G C36U C51G G92C U109A U151A | ≤ -4.2 |
| C32G U55A G58A G68A C85U G88C C93A A106G C116A U135A | ≤ -4.2 |
| U33C C54U C96U A107C | ≤ -4.2 |
| C32G C38U G58A U82A C96A U104G A110C G133A U139A G152U | ≤ -4.2 |
| C32G | -3.19 |
| C32A | -2.96 |
| C32U | -1.22 |
| C32G C54A C75U U77A C85U A106G U135C | ≤ -4.2 |
| U31G G42C G50C C57A C79G G80C G136C | ≤ -4.2 |
| C32G C87U A107U A113C C116A | ≤ -4.2 |
| C32A A39U G58A C72U G80U G83A | ≤ -4.2 |
| C32U C36U G68A G83U | ≤ -4.2 |
| C32A A41C G94U C103A C118U | ≤ -4.2 |
| C32U A60G A142G | -3.31 |

| Variant | polymerase ribozyme fitness (log ratio) |
| --- | --- |
| U31C U44A C54A C76G C95G C105G A107G | -4.01 |
| U31G U145A | 0.652 |
| C32G C79U C96G A142C | -3.79 |
| U31G G62C G88C A119G | ≤ -4.2 |
| C32U G62A C76G G84U C116U G140A C149U | ≤ -4.2 |
| U33A C95U | -4.12 |
| C32G A52C U61A G62C C63A C75U C93U | -4.14 |
| U31G C95G C105G | ≤ -4.2 |
| U31C C38G A47G C51A U56A G83C U146C U148C | ≤ -4.2 |
| C32U A41U | -3.95 |
| C32A G50U U55A C85A | ≤ -4.2 |
| U33A C75A A110U | ≤ -4.2 |
| U31G G65A | -1.83 |
| U31G G65U | ≤ -4.2 |
| U33A U53A U148C | ≤ -4.2 |
| U33A A41C U53C C57U G65A A66C G67C G80C | ≤ -4.2 |
| C32U C76A G83U G92C C114U C123A | ≤ -4.2 |
| C32A C35U C69A C75U A150G | ≤ -4.2 |
| U33C A39U G62A G86A A107U | ≤ -4.2 |
| U31G U45A A49C G84A A113G A142C | ≤ -4.2 |
| U33A G50C G81A C93G C96U A98G C103G G152U | ≤ -4.2 |
